In the RNAGym collection of RNA variant scans (doi:10.7554/elife.80360) one finds self-cleavage data, which are given here for 167 variants.

Sequences and labels used below:
B1: CPEB3 Ribozyme (parent)
chain: GGGGGCCACAGCAGAAGCGUUCACGUCGCGGCCCCUGUCAGAUUCUGGUGAAUCUGCGAAUUCUGCUGU

The variants in this series derive from B1. Description: self-cleavage, relative activity (ratio to wild type); higher = more cleavage; co-transcriptional.
For the variant G17A C54A, the self-cleavage was determined as 0.236.
The figure for G17A C54G is 0.187; for G17A C54U it is 0.488; for G17A G19A it is 0.154.
As for G17A G19U, the self-cleavage was 0.114.
On to G17A G19C, for which the self-cleavage amounted to 0.095.
Consider A16G G50U, for which the self-cleavage stood at 0.994.
Regarding G17A G31U, the self-cleavage came to 0.113.
For the variant G17A G31C, the self-cleavage worked out at 0.135.
The figure for A16G U46G is 0.969; for A16G U46C it is 0.728.
A16U U67G: the self-cleavage worked out at 0.9.
As for A16U U67A, the figure is 0.877; as for G17C C32A, 0.113.
As for G17C C32U, the figure is 0.136; as for A16G U61G, 0.732; as for A16G U61A, 0.833.
Regarding A16G U61C, the self-cleavage turned out to be 0.951.
Take A16U C24A: the self-cleavage was found to be 0.23.
In the case of A16U U44A, the self-cleavage amounted to 0.729.
Regarding A16U U44C, the self-cleavage turned out to be 0.703.
For A16U U21A, the self-cleavage turned out to be 0.839.
As for A16U G28A, the figure is 0.0797.
Regarding A16U G28U, the self-cleavage turned out to be 0.131.
Regarding A16U G28C, the self-cleavage turned out to be 0.166.
As for G17C G65A, the figure is 0.158; as for G17C G65U, 0.131; as for A16G U62C, 0.788.
The figure for A16G U62A is 0.712.
The figure for G17C C27G is 0.156; for G17C C27A it is 0.129; for G17C C45U it is 0.121.
On to G17C C45G, for which the self-cleavage was 0.142.
The figure for A16U U38C is 0.625; for A16U U38A it is 0.424; for G17A G58A it is 0.259.
For the variant G17A G58C, the self-cleavage is 0.454.
Consider G17A G58U, for which the self-cleavage turned out to be 0.539.
As for G17A A59G, the figure is 0.691.
As for A16U G25C, the figure is 0.194; as for A16U U62C, 0.734; as for A16U U62G, 0.625.
With G17A U61G, the self-cleavage is 0.237.
For A16G G41U, the self-cleavage was determined as 0.472.
In the case of A16G G41C, the self-cleavage worked out at 0.41.
The figure for G17A U20C is 0.0978.
Take G17A U26C: the self-cleavage was determined as 0.335.
The figure for G17A U26G is 0.413; for A16U U53G it is 0.549.
As for A16U U53A, the figure is 0.66; as for A16U C29A, 0.288; as for A16U C29G, 0.243.
Turning to G17A C24A, the self-cleavage came to 0.221.
As for G17A C24G, the figure is 0.116.
The figure for A16U G37U is 0.173.
As for A16U G37A, the self-cleavage worked out at 0.154.
The figure for A16G U26A is 0.801; for A16G U26G it is 0.848; for A16G U55C it is 0.534.
Consider A16U, for which the self-cleavage came out at 0.888.
As for A16G G47U, the figure is 0.998; as for A16G U53C, 0.622; as for G17A G65A, 0.203.
The figure for G17A G65C is 0.27; for G17A G65U it is 0.225; for G17A G28U it is 0.139.
As for G17A G28A, the figure is 0.145; as for A16U A60U, 0.251; as for A16U A60G, 0.56.
Take A16U A60C: the self-cleavage came out at 0.227.
The figure for A16G G37C is 0.146.
The figure for A16G G37U is 0.216; for G17C G56C it is 0.105; for G17C G56A it is 0.103.
Turning to G17C G56U, the self-cleavage was 0.115.
G17C A60U: the self-cleavage amounted to 0.183.
For the variant G17C A60G, the self-cleavage was determined as 0.127.
G17C A60C: the self-cleavage is 0.109.
For G17A U67A, the self-cleavage amounted to 0.45.
As for G17A U67G, the figure is 0.542; as for A16U C57U, 0.196; as for A16U C57G, 0.246.
On to G17A G68A, for which the self-cleavage was 0.843.
G17A G68U: the self-cleavage came out at 0.751.
The figure for G17A G68C is 0.704.
Take A16U C33G: the self-cleavage amounted to 0.319.
As to A16U C33A, the self-cleavage is 0.555.
The figure for A16U C33U is 0.865.
As for G17C C24U, the self-cleavage amounted to 0.109.
As for G17C C24G, the self-cleavage stood at 0.208.
Consider G17C C24A, for which the self-cleavage came to 0.141.
As for A16U C32U, the self-cleavage was determined as 0.936.
The figure for A16U C32G is 0.24; for G17A U53C it is 0.22.
For the variant G17A U53G, the self-cleavage was found to be 0.38.
The figure for G17A U53A is 0.237.
The figure for G17A A60U is 0.203; for G17C G68C it is 0.242; for G17C G68A it is 0.331.
For the variant G17A G25A, the self-cleavage amounted to 0.201.
The figure for G17A G25C is 0.147.
As for G17A G25U, the figure is 0.117; as for A16U G41C, 0.366.
As for G17C C35A, the figure is 0.135.
For the variant G17C G41C, the self-cleavage was determined as 0.156.
As for G17C G41U, the figure is 0.123.
Regarding A16U G50U, the self-cleavage was found to be 0.862.
A16G U21G: the self-cleavage was determined as 0.395.
On to A16G U21C, for which the self-cleavage is 0.777.
On to G17A U69C, for which the self-cleavage is 0.883.
As for G17A U69G, the figure is 0.677; as for G17A C32U, 0.625.
Regarding G17A C32G, the self-cleavage is 0.13.
As for G17C A51U, the self-cleavage was determined as 0.173.
The figure for G17C A51G is 0.126; for A16G U67G it is 0.951; for A16G U67C it is 0.935.
Take G17A A52G: the self-cleavage stood at 0.596.
The figure for G17A A52U is 0.519.
For the variant G17A A40C, the self-cleavage was determined as 0.145.
Regarding G17A A40U, the self-cleavage was determined as 0.2.
As to G17A G48C, the self-cleavage was found to be 0.599.
For G17A C34A, the self-cleavage came out at 0.2.
The figure for G17A C34U is 0.524; for A16U U61G it is 0.902.
The figure for A16U U61C is 0.599; for A16U U61A it is 0.93.
In the case of A16U U64G, the self-cleavage worked out at 0.545.
The figure for A16U U64A is 0.588.
With A16U U64C, the self-cleavage stood at 0.463.
For A16U C18A, the self-cleavage was determined as 0.0736.
As for G17C C57U, the figure is 0.18.
For the variant G17C C57A, the self-cleavage is 0.147.
Turning to G17A C29U, the self-cleavage was 0.858.
As for G17A C29A, the figure is 0.572; as for G17C A42U, 0.151; as for G17C A42C, 0.14.
Turning to G17C U20A, the self-cleavage stood at 0.123.
In the case of G17C C66U, the self-cleavage worked out at 0.152.
The figure for A16U A59U is 0.381.
Turning to G17C G50A, the self-cleavage came out at 0.142.
On to G17C G50U, for which the self-cleavage is 0.157.
As for G17A C22A, the figure is 0.157; as for G17A C22G, 0.127; as for G17A C45A, 0.366.
As to G17A C45G, the self-cleavage is 0.435.
With A16G G30C, the self-cleavage turned out to be 0.105.
The figure for A16G G30U is 0.201; for A16G G30A it is 0.612.
Turning to G17C C29A, the self-cleavage was found to be 0.367.
The figure for A16G U36C is 0.724.
With A16G U69G, the self-cleavage is 1.04.
The figure for A16G U69A is 1.04.
The figure for G17A U64G is 0.256; for G17A U64A it is 0.211.
The figure for G17A U64C is 0.242.
A16U G68U: the self-cleavage turned out to be 0.948.
As for A16U G68C, the figure is 0.875; as for A16G G56C, 0.458.
The figure for A16G G56A is 0.703.
Consider G17C G19A, for which the self-cleavage amounted to 0.103.
The figure for G17C G19U is 0.0627.
For G17C G19C, the self-cleavage came out at 0.118.
With A16G U64G, the self-cleavage came out at 0.727.
The figure for A16G U64A is 0.645.
The figure for G17A G37C is 0.149; for G17A G37A it is 0.153.
